# Experimental data published in article PMC10720983.
# Target: DtpM (dithiolopyrrolone methyltransferase) (Saccharothrix algeriensis)
# Assay: SEC-MALS
substance,measurement,value
DtpM (dithiolopyrrolone methyltransferase) (enzyme),stoichiometry N,2
